Data reported in US20160346368A1.

Columns and labels:
[1] = molecular target: PVR-CD4TM-GFP (human); test: flow cytometry; HEK-293T cells transfected with PVR-CD4TM-GFP; CD226-Fc at 1 ug/ml; PE anti-human Fc
[2] = molecular target: PVR Q82K+S72N double variant-CD4TM-GFP (human); test: flow cytometry; HEK-293T cells transfected with PVR Q82K+S72N double variant-CD4TM-GFP; CD226-Fc at 10 ug/ml (heading of FIG. 8A); PE anti-human Fc
[3] = molecular target: PVR Q82K variant-CD4TM-GFP (human); test: flow cytometry; HEK-293T cells transfected with PVR Q82K variant-CD4TM-GFP; CD226-Fc at 10 ug/ml (heading of FIG. 8A); PE anti-human Fc
[4] = molecular target: PVR Q82K+S72N double variant-CD4TM-GFP (human); test: flow cytometry; HEK-293T cells transfected with PVR Q82K+S72N double variant-CD4TM-GFP; CD226-Fc at 1 ug/ml (heading of FIG. 8A); PE anti-human Fc
[5] = molecular target: PVR S72N variant-CD4TM-GFP (human); test: flow cytometry; HEK-293T cells transfected with PVR S72N variant-CD4TM-GFP; CD226-Fc at 10 ug/ml; PE anti-human Fc
[6] = molecular target: PVR-CD4TM-GFP (human); test: flow cytometry; HEK-293T cells transfected with PVR-CD4TM-GFP; CD226-Fc at 10 ug/ml; PE anti-human Fc
[7] = molecular target: PVR Q82K variant-CD4TM-GFP (human); test: flow cytometry; HEK-293T cells transfected with PVR Q82K variant-CD4TM-GFP; CD226-Fc at 1 ug/ml (heading of FIG. 8A); PE anti-human Fc
[8] = molecular target: PVR S72N variant-CD4TM-GFP (human); test: flow cytometry; HEK-293T cells transfected with PVR S72N variant-CD4TM-GFP; CD226-Fc at 1 ug/ml; PE anti-human Fc
[9] = molecular target: PVR-CD4TM-GFP (human); test: flow cytometry; HEK-293T cells transfected with PVR-CD4TM-GFP; Fc fusion detected with PE anti-human Fc; PE against FITC (GFP)
[10] = molecular target: PVR Q82K variant-CD4TM-GFP (human); test: flow cytometry; HEK-293T cells transfected with PVR Q82K variant-CD4TM-GFP; PE anti-human Fc
[11] = molecular target: PVR S72N variant-CD4TM-GFP (human); test: flow cytometry; HEK-293T cells transfected with PVR S72N variant-CD4TM-GFP; PE anti-human Fc
[12] = molecular target: PVR Q82K+S72N double variant-CD4TM-GFP (human); test: flow cytometry; HEK-293T cells transfected with PVR Q82K+S72N double variant-CD4TM-GFP; PE anti-human Fc

CD226-Fc, sequence (Q15762 19-254): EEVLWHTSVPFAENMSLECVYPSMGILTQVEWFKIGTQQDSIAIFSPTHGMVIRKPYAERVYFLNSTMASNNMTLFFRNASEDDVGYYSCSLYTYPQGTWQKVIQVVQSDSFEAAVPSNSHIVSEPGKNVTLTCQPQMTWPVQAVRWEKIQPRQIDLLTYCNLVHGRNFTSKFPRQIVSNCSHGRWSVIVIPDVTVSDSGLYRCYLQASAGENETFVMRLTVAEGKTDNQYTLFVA

Row | Substance | MFI [1] | MFI [2] | MFI [3] | MFI [4] | MFI [5] | MFI [6] | MFI [7] | MFI [8] | MFI [9] | MFI [10] | MFI [11] | MFI [12]
1 | CD226-Fc (from UniProt Q15762 19-254) (Fc fusion) | 205 | 93.3 | 521 | 17.9 | 104 | 409 | 247 | 16.5 |  |  |  | 
2 | TIGIT-Fc (from UniProt Q495A1 22-141) (Fc fusion) |  |  |  |  |  |  |  |  | 389 | 605 | 530 | 795
